Test results taken from US20210162014A1 (CASE WESTERN RESERVE UNIVERSITY, published 2021).
Where “and” joins values, the source holds several entries; their conditions need not be identical. Identical values can stand only once. Bridges are numbered along the chain shown (N, C = ends). Where no end group is shown, it is not given here.

How the values were obtained:
[1] = target: IGF Type I receptor (IGF-1R) (UniProt P08069); assay: receptor affinity (method not described), relative to wild-type insulin
[2] = target: B isoform of the insulin receptor (UniProt P06213); assay: receptor affinity (method not described), relative to wild-type human insulin
[3] = target: T1, A isoform of the insulin receptor (UniProt P06213-2 28-1370, limits assumed); assay: as above
T1 construct: Isoform A is the short isoform lacking exon 11; also called IR-A

[4] = substrate: B isoform of the insulin receptor (UniProt P06213); assay: receptor-binding affinity assay (method not described), relative to wild-type human insulin
[5] = target: T1, A isoform of the insulin receptor; assay: receptor-binding affinity assay (method not described; data not shown), relative to wild-type human insulin

| fold reduction in affinity relative to wild-type insulin [1] | affinity relative to wild-type human insulin (percent) [2] | affinity relative to wild-type human insulin (percent) [3] | fold reduction in affinity relative to wild-type human insulin [4] | affinity relative to human insulin (percent) [5] | Molecule |
| --- | --- | --- | --- | --- | --- |
| 10 fold | 10 to 150% | 10 to 150% | – | – | 59-mer SCI with C domain EEGSRRSR ('this SCI' of paragraph 30) (ligand) |
| – | – | – | 5 fold and 10 fold | 120 percent | 4SS 81-04 (57mer single-chain insulin analogue containing a fourth disulfide bridge between residues B4 and A10) (ligand, disulfide 19-56, 4-46, 42-47, 7-43, Single-chain insulin analogue, 57 residues, C domain EEGPRR; also called analogue 4SS 81-04) FVNCHLCGSHLVEALYLVCGERGFFYTDPTEEGPRRGIVEQCCHSCCSLEQLENYCN |
